As a reminder, the stoichiometry N is the number of molecules, sites or subunits per partner or assembly.

B1: Cdc7 (subunit of the full-length DDK) (enzyme, budding yeast, UniProt P06243 1-507, looked up)
chain: MTSKTKNIDDIPPEIKEEMIQLYHDLPGIENEYKLIDKIGEGTFSSVYKAKDITGKITKKFASHFWNYGSNYVALKKIYVTSSPQRIYNELNLLYIMTGSSRVAPLCDAKRVRDQVIAVLPYYPHEEFRTFYRDLPIKGIKKYIWELLRALKFVHSKGIIHRDIKPTNFLFNLELGRGVLVDFGLAEAQMDYKSMISSQNDYDNYANTNHDGGYSMRNHEQFCPCIMRNQYSPNSHNQTPPMVTIQNGKVVHLNNVNGVDLTKGYPKNETRRIKRANRAGTRGFRAPEVLMKCGAQSTKIDIWSVGVILLSLLGRRFPMFQSLDDADSLLELCTIFGWKELRKCAALHGLGFEASGLIWDKPNGYSNGLKEFVYDLLNKECTIGTFPEYSVAFETFGFLQQELHDRMSIEPQLPDPKTNMDAVDAYELKKYQEEIWSDHYWCFQVLEQCFEMDPQKRSSAEDLLKTPFFNELNENTYLLDGESTDEDDVVSSSEADLLDKDVLLISE
notes: Cdc7, budding yeast; Stood in the assay as part of the DDK heterodimer; also called kinase core
B2: Dbf4 (subunit of the full-length DDK) (natural protein, budding yeast, UniProt P32325 1-704, looked up)
chain: MVSPTKMIIRSPLKETDTNLKHNNGIAASTTAAGHLNVFSNDNNCNNNNTTESFPKKRSLERLELQQQQHLHEKKRARIERARSIEGAVQVSKGTGLKNVEPRVTPKELLEWQTNWKKIMKRDSRIYFDITDDVEMNTYNKSKMDKRRDLLKRGFLTLGAQITQFFDTTVTIVITRRSVENIYLLKDTDILSRAKKNYMKVWSYEKAARFLKNLDVDLDHLSKTKSASLAAPTLSNLLHNEKLYGPTDRDPRTKRDDIHYFKYPHVYLYDLWQTWAPIITLEWKPQELTNLDELPYPILKIGSFGRCPFIGDRNYDESSYKRVVKRYSRDKANKKYALQLRALFQYHADTLLNTSSVNDQTKNLIFIPHTCNDSTKSFKKWMQEKAKNFEKTELKKTDDSAVQDVRNEHADQTDEKNSILLNETETKEPPLKEEKENKQSIAEESNKYPQRKELAATPKLNHPVLATFARQETEEVPDDLCTLKTKSRQAFEIKASGAHQSNDVATSFGNGLGPTRASVMSKNMKSLSRLMVDRKLGVKQTNGNNKNYTATIATTAETSKENRHRLDFNALKKDEAPSKETGKDSAVHLETNRKPQNFPKVATKSVSADSKVHNDIKITTTESPTASKKSTSTNVTLHFNAQTAQTAQPVKKETVKNSGYCENCRVKYESLEQHIVSEKHLSFAENDLNFEAIDSLIENLRFQI
notes: Dbf4, budding yeast, 704 residues; Stood in the assay as part of the DDK heterodimer
B3: Dbf4-dependent kinase Cdc7 (DDK), full-length Cdc7-Dbf4 heterodimer (complex, budding yeast)
chain 1: B2 chain
chain 2: B1 chain
notes: Dbf4, budding yeast, 704 residues; Cdc7, budding yeast; Treated with lambda phosphatase during purification; also called Dbf4-Cdc7 kinase complex; WT DDK

“And” between values parts separate entries of the source, which are not always exact repeats. Equal entries are not always repeated.

Common to all, as to assay: cryo-EM structure; DDK-DH mixture (ATP-γ-S) mildly crosslinked by Grafix: 20-40% glycerol gradient with 0-0.025% glutaraldehyde, 150 mM KOAc, pH 7.6, 4 °C; States I-IV and Groups I-VI by focused 3D classification
Common to all, as to settings: both partners purified

In assay [1] the target is B2.
Assay [2] deals with T1, Mcm4 (subunit of the MCM double hexamer) (budding yeast (endogenous in W303), UniProt P30665 1-933).
T1 construct: Mcm4, budding yeast, endogenous protein from its genomic locus; Stood in the assay as a subunit of the DH; source: endogenous, G1 chromatin of budding yeast (W303), purified as part of the DH
T1 sequence (looked up): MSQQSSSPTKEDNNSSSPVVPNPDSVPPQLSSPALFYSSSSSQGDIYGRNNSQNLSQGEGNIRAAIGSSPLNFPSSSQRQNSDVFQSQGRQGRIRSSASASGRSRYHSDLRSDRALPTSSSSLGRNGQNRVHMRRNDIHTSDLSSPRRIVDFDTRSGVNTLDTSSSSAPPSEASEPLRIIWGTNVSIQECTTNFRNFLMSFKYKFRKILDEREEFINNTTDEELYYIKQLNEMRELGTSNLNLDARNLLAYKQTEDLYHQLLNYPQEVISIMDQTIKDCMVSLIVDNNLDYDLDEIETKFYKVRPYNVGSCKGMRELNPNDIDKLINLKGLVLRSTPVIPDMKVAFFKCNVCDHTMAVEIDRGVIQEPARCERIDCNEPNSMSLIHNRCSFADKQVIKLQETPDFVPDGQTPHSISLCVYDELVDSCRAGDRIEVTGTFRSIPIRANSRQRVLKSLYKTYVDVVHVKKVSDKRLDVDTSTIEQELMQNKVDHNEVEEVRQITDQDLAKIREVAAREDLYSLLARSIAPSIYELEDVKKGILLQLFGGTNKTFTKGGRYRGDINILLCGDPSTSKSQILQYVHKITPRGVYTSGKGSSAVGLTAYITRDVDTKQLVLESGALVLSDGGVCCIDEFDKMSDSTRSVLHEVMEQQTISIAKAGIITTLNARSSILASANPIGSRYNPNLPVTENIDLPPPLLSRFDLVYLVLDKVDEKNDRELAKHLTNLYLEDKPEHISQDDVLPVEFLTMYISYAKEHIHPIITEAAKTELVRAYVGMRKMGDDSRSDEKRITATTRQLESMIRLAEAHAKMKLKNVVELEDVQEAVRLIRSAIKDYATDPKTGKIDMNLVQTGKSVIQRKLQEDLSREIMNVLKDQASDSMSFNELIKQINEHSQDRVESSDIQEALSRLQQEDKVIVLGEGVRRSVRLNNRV

The target of assay [3] is T2, Mcm6 (subunit of the MCM double hexamer) (budding yeast (endogenous in W303), UniProt P53091 1-1017).
T2 construct: Mcm6, budding yeast, endogenous protein from its genomic locus; Stood in the assay as a subunit of the DH; source: endogenous, G1 chromatin of budding yeast (W303), purified as part of the DH

Assay [4] deals with T3, Mcm2 (subunit of the MCM double hexamer) (budding yeast (endogenous in W303), UniProt P29469 1-868).
T3 construct: Mcm2, budding yeast, endogenous protein from its genomic locus; Stood in the assay as a subunit of the DH; source: endogenous, G1 chromatin of budding yeast (W303), purified as part of the DH
T3 sequence (looked up): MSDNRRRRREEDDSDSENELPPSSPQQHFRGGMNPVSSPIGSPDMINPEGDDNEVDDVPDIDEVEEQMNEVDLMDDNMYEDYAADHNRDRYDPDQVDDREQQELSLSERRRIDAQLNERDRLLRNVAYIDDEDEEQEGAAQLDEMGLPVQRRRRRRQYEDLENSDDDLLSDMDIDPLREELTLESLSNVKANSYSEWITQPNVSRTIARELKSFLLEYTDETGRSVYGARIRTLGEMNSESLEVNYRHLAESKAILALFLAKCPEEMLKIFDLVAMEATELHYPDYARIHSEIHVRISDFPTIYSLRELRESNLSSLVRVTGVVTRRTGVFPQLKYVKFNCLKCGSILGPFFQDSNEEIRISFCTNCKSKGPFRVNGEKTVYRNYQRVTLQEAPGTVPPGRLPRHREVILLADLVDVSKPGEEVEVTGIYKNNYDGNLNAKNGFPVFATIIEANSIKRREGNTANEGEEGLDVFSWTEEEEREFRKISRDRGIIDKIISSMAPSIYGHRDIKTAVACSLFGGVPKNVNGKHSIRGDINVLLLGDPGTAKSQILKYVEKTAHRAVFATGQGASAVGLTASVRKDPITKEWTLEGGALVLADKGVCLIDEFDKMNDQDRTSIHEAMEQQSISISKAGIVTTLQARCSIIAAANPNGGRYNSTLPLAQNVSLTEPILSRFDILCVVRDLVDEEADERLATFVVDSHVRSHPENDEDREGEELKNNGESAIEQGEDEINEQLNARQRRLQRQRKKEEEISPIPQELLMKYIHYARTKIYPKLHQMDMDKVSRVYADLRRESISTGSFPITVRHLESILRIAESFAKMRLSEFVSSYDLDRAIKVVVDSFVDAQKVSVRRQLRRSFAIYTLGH

Assay [5] deals with T4, MCM double hexamer (Mcm2-7 double hexamer), endogenous, wild type (budding yeast (endogenous in W303), UniProt P29469 1-868; P24279 1-971; P30665 1-933; P29496 1-775; P53091 1-1017; P38132 …).
T4 construct: Mcm2, budding yeast, endogenous protein from its genomic locus; Mcm3, budding yeast, endogenous protein from its genomic locus; Mcm4, budding yeast, endogenous protein from its genomic locus; Mcm5, budding yeast, endogenous protein from its genomic locus; Mcm6, budding yeast, endogenous protein from its genomic locus; Mcm7, budding yeast, endogenous protein from its genomic locus; Either …
T4 sequence (P24279 whole entry, chain 2 of 4): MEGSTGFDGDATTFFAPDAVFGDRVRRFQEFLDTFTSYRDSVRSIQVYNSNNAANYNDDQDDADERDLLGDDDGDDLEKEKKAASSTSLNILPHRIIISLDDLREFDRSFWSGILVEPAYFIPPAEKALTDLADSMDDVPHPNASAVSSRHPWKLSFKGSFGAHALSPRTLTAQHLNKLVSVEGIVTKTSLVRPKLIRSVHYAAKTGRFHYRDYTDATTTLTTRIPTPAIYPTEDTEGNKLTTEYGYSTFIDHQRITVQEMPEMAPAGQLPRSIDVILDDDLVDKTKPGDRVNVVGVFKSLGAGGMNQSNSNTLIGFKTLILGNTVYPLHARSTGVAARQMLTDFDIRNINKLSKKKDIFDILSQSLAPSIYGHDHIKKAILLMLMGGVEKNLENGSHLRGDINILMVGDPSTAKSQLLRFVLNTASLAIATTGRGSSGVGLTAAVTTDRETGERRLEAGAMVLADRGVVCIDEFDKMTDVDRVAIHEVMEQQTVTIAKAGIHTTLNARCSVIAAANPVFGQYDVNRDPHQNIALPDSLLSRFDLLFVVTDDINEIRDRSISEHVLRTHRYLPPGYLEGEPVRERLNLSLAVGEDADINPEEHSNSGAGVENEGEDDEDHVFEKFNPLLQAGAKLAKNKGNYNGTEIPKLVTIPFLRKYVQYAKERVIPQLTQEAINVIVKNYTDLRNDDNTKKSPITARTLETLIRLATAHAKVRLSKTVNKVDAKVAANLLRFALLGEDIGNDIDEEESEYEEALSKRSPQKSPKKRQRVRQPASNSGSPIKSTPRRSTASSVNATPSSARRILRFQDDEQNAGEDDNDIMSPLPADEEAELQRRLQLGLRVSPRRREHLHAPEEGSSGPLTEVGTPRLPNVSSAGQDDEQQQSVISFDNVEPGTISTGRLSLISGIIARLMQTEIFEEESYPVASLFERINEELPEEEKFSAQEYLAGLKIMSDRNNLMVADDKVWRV
T4 sequence (P29496 whole entry, chain 4 of 4): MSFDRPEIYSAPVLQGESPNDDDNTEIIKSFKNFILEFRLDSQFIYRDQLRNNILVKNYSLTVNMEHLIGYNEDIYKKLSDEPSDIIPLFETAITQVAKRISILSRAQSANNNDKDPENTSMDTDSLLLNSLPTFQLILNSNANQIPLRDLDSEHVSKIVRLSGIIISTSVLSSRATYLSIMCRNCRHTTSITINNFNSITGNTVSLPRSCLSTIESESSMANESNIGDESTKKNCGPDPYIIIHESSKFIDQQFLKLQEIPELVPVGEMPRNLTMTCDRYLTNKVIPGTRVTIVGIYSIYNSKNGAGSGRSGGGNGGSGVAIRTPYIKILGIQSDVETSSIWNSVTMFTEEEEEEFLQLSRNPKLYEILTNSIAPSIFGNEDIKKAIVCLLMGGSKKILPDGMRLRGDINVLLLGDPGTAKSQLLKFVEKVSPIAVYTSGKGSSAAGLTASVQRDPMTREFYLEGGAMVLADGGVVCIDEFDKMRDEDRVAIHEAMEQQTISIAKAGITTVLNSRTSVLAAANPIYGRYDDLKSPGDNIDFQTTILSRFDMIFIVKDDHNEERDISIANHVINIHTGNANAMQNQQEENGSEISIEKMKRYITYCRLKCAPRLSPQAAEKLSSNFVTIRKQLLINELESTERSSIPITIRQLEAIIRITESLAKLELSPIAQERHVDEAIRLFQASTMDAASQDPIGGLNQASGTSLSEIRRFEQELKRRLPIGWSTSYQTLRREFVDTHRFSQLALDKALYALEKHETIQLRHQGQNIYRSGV
T4 sequence (P53091 whole entry, chain 5 of 4): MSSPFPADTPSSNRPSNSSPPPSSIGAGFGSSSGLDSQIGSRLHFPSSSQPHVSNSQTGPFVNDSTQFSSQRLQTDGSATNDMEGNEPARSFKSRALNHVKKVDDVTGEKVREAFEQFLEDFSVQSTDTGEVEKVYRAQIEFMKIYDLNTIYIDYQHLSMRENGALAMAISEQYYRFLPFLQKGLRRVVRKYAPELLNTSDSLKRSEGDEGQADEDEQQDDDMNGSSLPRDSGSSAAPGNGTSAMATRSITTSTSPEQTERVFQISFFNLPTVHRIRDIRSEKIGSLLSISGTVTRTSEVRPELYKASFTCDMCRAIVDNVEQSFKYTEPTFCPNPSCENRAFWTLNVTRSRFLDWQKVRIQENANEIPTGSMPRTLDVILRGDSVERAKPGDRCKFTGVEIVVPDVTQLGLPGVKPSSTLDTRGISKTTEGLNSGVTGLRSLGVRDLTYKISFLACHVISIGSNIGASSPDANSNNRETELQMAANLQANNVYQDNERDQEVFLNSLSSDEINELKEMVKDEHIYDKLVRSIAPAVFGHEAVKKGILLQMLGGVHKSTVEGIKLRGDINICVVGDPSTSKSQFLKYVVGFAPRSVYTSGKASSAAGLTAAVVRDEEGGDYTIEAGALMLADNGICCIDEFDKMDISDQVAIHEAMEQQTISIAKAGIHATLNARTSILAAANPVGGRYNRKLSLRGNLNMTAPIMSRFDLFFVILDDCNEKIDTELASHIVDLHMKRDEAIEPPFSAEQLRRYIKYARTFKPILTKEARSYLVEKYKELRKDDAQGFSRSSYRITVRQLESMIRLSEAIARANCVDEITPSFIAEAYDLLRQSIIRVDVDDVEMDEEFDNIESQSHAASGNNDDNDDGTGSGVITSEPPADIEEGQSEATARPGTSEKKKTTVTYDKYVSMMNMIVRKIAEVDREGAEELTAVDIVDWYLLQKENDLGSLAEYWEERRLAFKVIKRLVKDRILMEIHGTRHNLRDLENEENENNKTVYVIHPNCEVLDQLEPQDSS
T4 sequence (P38132 whole entry, chain 6 of 4): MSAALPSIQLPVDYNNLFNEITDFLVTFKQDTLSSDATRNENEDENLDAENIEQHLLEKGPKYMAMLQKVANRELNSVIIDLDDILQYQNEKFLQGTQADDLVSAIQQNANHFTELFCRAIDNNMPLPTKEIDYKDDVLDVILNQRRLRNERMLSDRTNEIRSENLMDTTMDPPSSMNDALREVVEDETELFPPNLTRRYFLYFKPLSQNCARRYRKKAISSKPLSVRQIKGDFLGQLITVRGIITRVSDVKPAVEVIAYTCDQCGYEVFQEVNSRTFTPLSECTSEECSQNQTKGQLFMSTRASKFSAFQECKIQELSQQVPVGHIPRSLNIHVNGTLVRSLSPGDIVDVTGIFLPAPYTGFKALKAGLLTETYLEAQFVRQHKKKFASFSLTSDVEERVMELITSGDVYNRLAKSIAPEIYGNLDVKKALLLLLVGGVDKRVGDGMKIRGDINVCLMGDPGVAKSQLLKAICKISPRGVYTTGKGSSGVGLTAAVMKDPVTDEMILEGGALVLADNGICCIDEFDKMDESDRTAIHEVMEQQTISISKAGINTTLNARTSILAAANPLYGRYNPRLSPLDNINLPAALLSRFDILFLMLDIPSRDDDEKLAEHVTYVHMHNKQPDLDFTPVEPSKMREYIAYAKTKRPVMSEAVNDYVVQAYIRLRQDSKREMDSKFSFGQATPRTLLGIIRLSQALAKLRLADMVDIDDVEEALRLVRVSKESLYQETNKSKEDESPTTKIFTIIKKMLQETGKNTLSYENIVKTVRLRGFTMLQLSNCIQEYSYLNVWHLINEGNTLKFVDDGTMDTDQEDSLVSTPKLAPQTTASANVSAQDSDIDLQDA

T2 sequence (P53091 whole entry): as the sequence (P53091 whole entry, chain 5 of 4) above

Take B1: the binding result in assay [1] is “binds”.
For the molecule B2, the binding result in assay [2], in assay [3] and in assay [4] was “binds” each time.
Turning to B3, the “stoichiometry N” value in assay [5] was 2 DDK per DH and 1 DDK per DH.

Source of the values: paper PMC8927117, “Structural Insight into the MCM double hexamer activation by Dbf4-Cdc7 kinase” (Nature Communications, 2022).
